Experimental data from the RNAGym collection of RNA variant scans (doi:10.1073/pnas.2313332121).

B1: TPR t1 (parent)
chain: GACCAAUCUGCCCUCAGAGCUCGAGAACAUCUUCGGAUGCAGAGGAGGCAGGCUUCGGUGGCGCGAUAGCGCCAACGUCCUCAACCUCCAAUGCAUCCCACCACAUGAUGAUGCCUGAAGAGCCUUGGUUUUUUG

Variants of: B1
Assay: polymerase ribozyme fitness, log enrichment relative to wild type (log ratio); higher = more active; in vitro selection for triplet polymerase activity
In short: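 Fitness compares each genotype's enrichment to that of the wild type on a logarithmic scale, averaging replicates with inverse-variance weights. The logarithm is base 2. Enrichment came from Illumina sequencing of input and output libraries after one triplicate round of in vitro selection, which included frozen incubation at −7 °C, of PCR-built, transcribed mutant libraries of each subunit of a heterodimeric triplet polymerase ribozyme. Only genotypes with ≥10 input reads and ≥1 read per output were kept.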

Row | Variant | polymerase ribozyme fitness (log ratio)
1 | GACCAAUCUGCCCUCAGAGCUCGAGAACAUCUACGGAUGCAGAGGAGGCAGGCUUCGGUGGCGCGAUAGCGGCCACGUCCUCAACCUCCAAUGCAUCCCACCACAUGAUGAUGCCUGAAGAGCCUUCGUUUUUUG | -7.04
2 | GACCAAUCUGCCCUCAGAGCUCGAGAACAUCUACGGAUGCAGAGGAGGCAGGCUUCGGUGGCGAGAUACCGCCAACGUCCUCAACCUCCAAUGCAUCCCACCACAUGAUGAUGCCUGAAGAGCCUUGGUUUUUUG | -5.43
3 | GACCAAUCUGCCCUCAGAGCUCGAGAACAUCUACGGAUGCAGAGGAGGCAGGCUUCGGUGGGGCGAUAGCGCAAACGGCCUCAACCUCCAAUGCAUCCCACCACAUGAUGAUGCCUGAAGAGCCUUGGUUUUUUG | -5.54
4 | GACCAAUCUGCCCUCAGAGCUCGAGAACAUCGUCGGAUGCAGAGGAGGCAGGCUUCGGUGGCGCGAUAGCGCCAACGUCCUCAACCUCCAAUGCAUCCCACCACAUGAUGAUGCCUGAUGAGCCUUGGUUUUUUG | -6.21
5 | GACCAAUCUGCCCUCAGAGCUCGAGAACAUCCUCGGAUACAAAGGAGGCAGACUUCGGUGGCGCGAUAGUGCCAACGUCCUCAACCUGCAAUGCAUCCCACCACAUGAUGAUGCCUGAAGAGCCUUGGUUUUUUG | -3.93
6 | GACCAAUCUGCCCUCAGAGCUCGAGAACAUCGUCGGAUGCAGAGGAGGCAGGCUUCGGUGGAGCGAUAGCGCCAACGUCCUCAACCUCCAAUGCAUCCCACAACAUGAUGGUGCCUGAAGAGCCUUGGUUUUUUG | -6.35
7 | GACCAAUCUGCCCUCAGAGCUCGAGAACAUCUCCGGCUGCAUAGGAGGCAGGCUUCGGUGGCGCGAUAUCGCCAACGUCCUCAACCUCCAAUGCAUCCCACCACAUGAUGCUGCAUGAAGAGCCUUCGUUUUGUG | -5.26
8 | GACCAAUCUGCCCUCAGAGCUCGAGAACAUCCUCGGAUGCAGAGGAGGCAGGCUUCGGUGGCGCGAUACCGCCAACGUCCUCAACCUCCAAUGCAUCCCACCACAUGAUGAUGCCUGAAGAGCCUUGGUUUUUUG | -2.01
9 | GACCAAUCUGCCCUCAGAGCUCGAGAACAUCUACGGAUGCAGAGGAGGCAGGCUUCGGUGGCGCGAUAGCGGCAACGUCCUCAACCUCCAAUGCAUCCCACCACAUGAUGAUGCCUGAAGAGCCUUGGUUUUUUG | -5.17
10 | GACCAAUCUGCCCUCAGAGCUCGAGAACAUCCUCGGAUGCAGAGGAGACAGGCUUCGGUGGCGCGAUAGCGCCAACGUCCUCAACCUCCAAUGCAUCCCACAACAUGAUGAUGCCUGAAGAGUCUUGGUUUUUUG | -2.5
11 | GACCAAUCUGCCCUCAGAGCUCGAGAACAUCGUCGGGUGCAGAGGAGGCAGGCUUCGGUGGCGCGAUAGCGCCGACGUCCUCAACCUCCAAUGCAUCCCACCACAUGAUGUUGCCUGAAGAGCCUUGGUUUUCUG | -5.3
12 | GACCAAUCUGCCCUCAGAGCUCGAGAACAUCUACGGAUGCAGAGGAGGCAGGCUUCGGUGGCGCGAUAGCGCCAACGUCCUCAACCUCCAAUGCAUCCCACCAUAUGAUGAAGCCUGAAGAGCCUUGGUUUUUUG | -3.5
13 | GACCAAUCUGCCCUCAGAGCUCGAGAACAUCUACGGAUGCAGAGGAGGCAGGCUUAGGUGGCGCGAUAGCGCCAACGUCCUCAACCUCCAAUGCAUCCCACCACAUGAUGAUGCCUGAAGAGCCUUGGUUUUUUG | -4.57
14 | GACCAAUCUGCCCUCAGAGCUCGAGAACAUCUACGGAUGCAGAGGAGGCAGGAUUCGGUGGUGCGAUAGCGCCAACGUCCUCAACCUCCAAUGCAUCCCACCACAUGAUGAUGCCUGAAGAGCCUUGGUUUUUUG | -5.53
15 | GACCAAUCUGCCCUCAGAGCUCGAGAACAUCGUCGGAUGCAGAGGAGGCAGGCUUUGGUGGCGCGAUAGCGCCAACGUCCUCAACCUCCAAUGCAUCCCACCACAUGAAGAUGCCUGAAGAGCUUUGGUUUUUUG | -6.14
16 | GACCAAUCUGCCCUCAGAGCUCGAGAACAUCCUCGGAUGCAAAGGAGGCAGGCUUCGGUGGCGCGAUAUCGCCAACGUCCUCAACCUCCAAUGCAUCCCACCACAUGAUGAUGCCUGAAGAGCCUUGGUUUUUUG | -0.00577
17 | GACCAAUCUGCCCUCAGAGCUCGAGAACAUCCUCGGAUGCAGAGGAGGCAGGCUUCGGUGGCGCGAUAGCGCCAAUGUCCUCAACCUCCUAUGCAUCCCACCACAUGAUGAUGCCUGAAGAGCCUUGGUUUUUUG | -2.2
18 | GACCAAUCUGCCCUCAGAGCUCGAGAACAUCUACGCAUGCAGAGGAGGCAGGCUUCGGUGGCGCGAUAGCGUCAACGUCCUCAACCUCCAAUGCAUCCCACCACAUGAUGAUGCCUGAAGAGCCUUGGUUUUUUG | -4.02
19 | GACCAAUCUGCCCUCAGAGCUCGAGAACAUCUACGGAUGCAGAGGAGGCAGUCUUCGGUGGCGCGAUAGCGCCAACGUCCUCAACCUCCAAUGCAUCCCACCACAUGAUGAAGCCUGAAGAGCCUUGGUUUUUUG | -6.07
20 | GACCAAUCUGCCCUCAGAGCUCGAGAACAUCUACGGAUGCAGAGGAGGCUGGCUUCGGUGGCGCGAUAGCGCCAACGUCCUCAACCUCCAAUCCGUCCCAGCACAUGAUGAUGCCUGAAGAGCCUUGGUUUUUUG | -7.02
21 | GACCAAUCUGCCCUCAGAGCUCGAGAACAUCUCCGGCUGCAGAGGAGGCAGGCUUCGGUGGCGCGAUAGCGCCAACGUCCUCAACCUCCAAUGCAUCCCACCACAUGAUGAUGCCUGAAGAGCCUUGGUUUUUUG | -6.92
